doi:10.1101/2023.01.09.523197 (bioRxiv, 2023)

Target: the molecule itself
Assay: crystal structure

B1: Saccharopolyspora erythraea GlnR-DBD (domain or fragment)
chain: DGMLTVGDLVIEESTYTARLKGRALELTYKEFELLKYLAQHAGRVFTRAQLLQEVWGYDFFGGTRTVDVHVRRLRAKLGPEYDSMIGTVRNVGYKFVRPS
binding result: binds
